# Measurements: patent publication US6972319B1, “Pituitary adenylate cyclase activating peptide (PACAP)receptor 3 (R3) agonists and their pharmacological methods of use” (priority 1999, dated 2005)
# Like-named read-outs stand apart in the source and are kept apart here. Non-standard residues stand in square brackets, D forms with d. No end group written: not given here. Nle = CCCC[C@H](N)C(=O)O
# T1: PACAP-R3 (Homo sapiens, UniProt P41587)
# T1 sequence (P41587 24-438): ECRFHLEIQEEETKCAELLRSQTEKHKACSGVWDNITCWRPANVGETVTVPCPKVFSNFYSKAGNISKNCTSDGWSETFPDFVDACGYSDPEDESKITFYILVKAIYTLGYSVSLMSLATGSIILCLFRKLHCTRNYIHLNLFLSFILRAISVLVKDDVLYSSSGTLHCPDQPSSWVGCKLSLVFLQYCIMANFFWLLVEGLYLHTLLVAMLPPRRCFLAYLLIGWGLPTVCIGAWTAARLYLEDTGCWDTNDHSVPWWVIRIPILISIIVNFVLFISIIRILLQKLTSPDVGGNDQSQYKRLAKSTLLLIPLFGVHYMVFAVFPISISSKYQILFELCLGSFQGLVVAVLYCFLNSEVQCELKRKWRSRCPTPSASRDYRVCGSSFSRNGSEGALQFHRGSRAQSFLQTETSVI
# T2: PACAP-R3 (human, UniProt P41587 24-438)
# T2 sequence (looked up): T1 sequence (P41587 24-438)
# Experiments:
# [1] = molecular target: T1, PACAP-R3; assay: Cyclic AMP SPA on CHO cells expressing PACAP R3; assay type: cell-based; set-up: expressed in transfected cells; host or cells: CHO cells (Geneticin selection); conditions: for R3 Selectivity: ratio of EC50 at R2 versus EC50 at R3
# Experimental: CHO cells expressing the PACAP R3 were plated in 96-well plates (Costar) at 8×10^4 cell/well and grown at 37 C. for 24 hours in α MEM+nucleosides+glutamine (Giobco BRL), 10% FBS, 100 μg/ml Pen/Strep, 0.3 mg/ml glutamine, 1 mM HEPES, 0.5 mg/ml Geneticin (Gibco BRL). The media was removed and the plates were washed with PBS. The cells were incubated with a peptide, in Hepes-PBS-BSA with 0.4 mg/mlSoybean Trypsin Inhibitor, 0.5 mg/ml Bacitracin, 100 uM IBMX, for 15 min at 37 C. Cyclic AMP in the cell extracts was quantitated using the cAMP SPA direct screening assay system (Amersham Pharmacia Biotech Inc, Piscataway, N.J.,). The peptides shown in Table 3 were assayed for cAMP activity.
# EC50 is defined as the concentration of the polypeptide at which 50% of maximum PACAP27 activity is achieved. “NA” denotes no detectable activities. “R3 Selectivity” is derived from the ratio of EC50 at R2 versus EC50 at R3.
# [2] = molecular target: T2, PACAP-R3; assay: cell-based or functional assay
# [3] = cAMP SPA, CHO cells transfected with PACAP-R3, concentration at which 50% of maximum PACAP27 activity is achieved, NA = no detectable activities, read-out: R3 EC50
"EC50 [1, 3]",R3 EC50 [2],R3 Selectivity [2],Molecule,also measured
0.7 nM,,,CC[C@H](C)[C@H](NC(=O)CNC(=O)[C@H](CC(=O)O)NC(=O)[C@H](CO)NC(=O)[C@@H](N)Cc1c[nH]cn1)C(=O)N[C@@H](Cc1ccccc1)C(=O)N[C@H](C(=O)N[C@@H](CC(=O)O)C(=O)N[C@@H](CO)C(=O)N[C@@H](Cc1ccc(O)cc1)C(=O)N[C@@H](CO)C(=O)N[C@@H](CCCNC(=N)N)C(=O)N[C@@H](Cc1ccc(O)cc1)C(=O)N[C@@H](CCCNC(=N)N)C(=O)N[C@@H](CCCCN)C(=O)N[C@@H](CCC(N)=O)C(=O)N[C@@H](CCSC)C(=O)N[C@@H](C)C(=O)N[C@H](C(=O)N[C@@H](CCCCN)C(=O)N[C@@H](CCCCN)C(=O)N[C@@H](Cc1ccc(O)cc1)C(=O)N[C@@H](CC(C)C)C(=O)N[C@@H](C)C(=O)N[C@@H](C)C(=O)N[C@H](C(=O)N[C@@H](CCCCN)C(=O)N[C@@H](CCCCN)C(=O)O)C(C)C)C(C)C)[C@@H](C)O [Peptide R3P40],
,,,HSDAVFTDDYTRLRKEVAAKKYLESIKDKRY [Peptide R3P173],EC50 [1]: 200 nM
3 nM,,,CC[C@H](C)[C@H](NC(=O)[C@H](CO)NC(=O)[C@H](CC(N)=O)NC(=O)[C@H](CC(C)C)NC(=O)[C@H](Cc1ccc(O)cc1)NC(=O)[C@H](CCCCN)NC(=O)[C@H](CCCCN)NC(=O)[C@H](CO)NC(=O)[C@H](C)NC(=O)[C@H](CCSC)NC(=O)[C@H](CCC(N)=O)NC(=O)[C@H](CCCCN)NC(=O)[C@H](CCCNC(=N)N)NC(=O)[C@H](CC(C)C)NC(=O)[C@H](CCCNC(=N)N)NC(=O)[C@@H](NC(=O)[C@H](Cc1ccc(O)cc1)NC(=O)[C@H](CC(N)=O)NC(=O)[C@H](CC(=O)O)NC(=O)[C@@H](NC(=O)[C@H](Cc1ccccc1)NC(=O)[C@@H](NC(=O)[C@H](C)NC(=O)[C@H](CC(=O)O)NC(=O)[C@H](CO)NC(=O)[C@@H](N)Cc1c[nH]cn1)C(C)C)[C@@H](C)O)[C@@H](C)O)C(=O)N[C@@H](CCCCN)C(=O)N[C@@H](CC(N)=O)C(=O)N[C@@H](CCCCN)C(=O)N[C@@H](CCCNC(=N)N)C(=O)O [Peptide R3P111],
0.5 nM,,,CC[C@H](C)[C@H](NC(=O)CNC(=O)[C@H](CC(=O)O)NC(=O)[C@H](CO)NC(=O)[C@@H](N)Cc1c[nH]cn1)C(=O)N[C@@H](Cc1ccccc1)C(=O)N[C@H](C(=O)N[C@@H](CC(=O)O)C(=O)N[C@@H](CO)C(=O)N[C@@H](Cc1ccc(O)cc1)C(=O)N[C@@H](CO)C(=O)N[C@@H](CCCNC(=N)N)C(=O)N[C@@H](Cc1ccc(O)cc1)C(=O)N[C@@H](CCCNC(=N)N)C(=O)N[C@@H](CCCCN)C(=O)N[C@@H](CCC(N)=O)C(=O)N[C@@H](CC(C)C)C(=O)N[C@@H](C)C(=O)N[C@H](C(=O)N[C@@H](CCCCN)C(=O)N[C@@H](CCCCN)C(=O)N[C@@H](Cc1ccc(O)cc1)C(=O)N[C@@H](CC(C)C)C(=O)N[C@@H](C)C(=O)N[C@@H](C)C(=O)N[C@H](C(=O)N[C@@H](CCCCN)C(=O)N[C@@H](CCCCN)C(=O)O)C(C)C)C(C)C)[C@@H](C)O [Peptide R3P39],
,,,CC[C@H](C)[C@H](NC(=O)CNC(=O)[C@H](CC(=O)O)NC(=O)[C@H](CO)NC(=O)[C@@H](N)Cc1c[nH]cn1)C(=O)N[C@@H](Cc1ccccc1)C(=O)N[C@H](C(=O)N[C@@H](CC(=O)O)C(=O)N[C@@H](CO)C(=O)N[C@@H](CCCCN)C(=O)N[C@@H](CO)C(=O)N[C@@H](CCCNC(=N)N)C(=O)N[C@@H](Cc1ccc(O)cc1)C(=O)N[C@@H](CCCNC(=N)N)C(=O)N[C@@H](CCCCN)C(=O)N[C@@H](CCC(N)=O)C(=O)N[C@@H](CCSC)C(=O)N[C@@H](C)C(=O)N[C@H](C(=O)N[C@@H](CCCCN)C(=O)N[C@@H](CCCCN)C(=O)N[C@@H](Cc1ccc(O)cc1)C(=O)N[C@@H](CC(C)C)C(=O)N[C@@H](C)C(=O)N[C@@H](C)C(=O)N[C@H](C(=O)N[C@@H](CC(C)C)C(N)=O)C(C)C)C(C)C)[C@@H](C)O [PAC10],R3 Selectivity [1]: 4
34 nM,,,HKDGIFTDSYSRYRKQMAVKKYLAAVL-NH2 [PAC2],
7 nM,,,CC[C@H](C)[C@H](NC(=O)[C@H](CC(=O)O)NC(=O)[C@H](CC(N)=O)NC(=O)[C@H](CC(C)C)NC(=O)[C@H](Cc1ccc(O)cc1)NC(=O)[C@H](CCCCN)NC(=O)[C@H](CCCCN)NC(=O)[C@@H](NC(=O)[C@H](C)NC(=O)[C@H](CC(C)C)NC(=O)[C@H](CCC(N)=O)NC(=O)[C@H](CCCCN)NC(=O)[C@H](CCCNC(=N)N)NC(=O)[C@H](CC(C)C)NC(=O)[C@H](CCCNC(=N)N)NC(=O)[C@@H](NC(=O)[C@H](Cc1ccc(O)cc1)NC(=O)[C@H](CC(N)=O)NC(=O)[C@H](CC(=O)O)NC(=O)[C@@H](NC(=O)[C@H](Cc1ccccc1)NC(=O)[C@@H](NC(=O)[C@H](C)NC(=O)[C@H](CC(=O)O)NC(=O)[C@H](CO)NC(=O)[C@@H](N)Cc1c[nH]cn1)C(C)C)[C@@H](C)O)[C@@H](C)O)C(C)C)C(=O)N[C@@H](CC(C)C)C(=O)N[C@@H](CCCCN)C(=O)NCC(=O)NCC(=O)N[C@H](C(=O)O)[C@@H](C)O [Peptide R3P28],
,0.26 nM,90,HSDAVFTDNYTRLRKQMAAKKYLNSIKK [R3P51],
,0.4 nM,> 250,Ac-HSDAVFTENYTKLRKQ[Nle]AAKKYLNDLKKGGT-NH2 [R3P0],
,0.06 nM,7,HSDAVFTDNYTRLRKQLAVKKYLNSILN [R3P46],
,0.27 nM,30,HSDAVFTDNYTRLRKQMAAKKYLNSIKN [R3P49],
,0.2 nM,2500,HSDAVFTDNYTRLRKQMAAKKYLNSIKKKR [R3P53],
,0.12 nM,6,HSDAVFTDNYTRLRKQMAAKKYLNSILN [R3P47],
,0.13 nM,6,HSDAVFTDNYTRLRKQMAAKKYLNSILK [R3P50],
,2 nM,> 50,Ac-HSDAVFTENYTKLRKQLAAKKYLNDLKKGGT-NH2 [R3P1],
,0.4 nM,> 250,HSDAVFTDNYTRLRKQMAAKKYLNSIKKKRY [R3P52],
,0.17 nM,280,HSDAVFTDNYTRLRKQMAAKKYLNSIKNKRY [R3P55],
,0.4 nM,100,HSDAVFTDNYTRLRKQMAVKKYLNSIKKKRY [R3P56],
,0.13 nM,8,HSDAVFTDNYTRLRKQMAVKKYLNDILN [R3P48],
,0.5 nM,> 200,HSDAVFTDNYTRLRKQMAAKKYLNSIKKK [R3P54],

Molecule,"EC50 [1, 3]",R3 EC50 [2],R3 Selectivity [2],also measured
H-HSDAVFTDNYTRLRKQMAGKKYLNSIQNRI-OH [rR3P185],4.5 nM,,,R3 Selectivity [1]: 40
H-HSDAVFTDNYTRLRKQMAAKKYLNSIGNKR-OH [Peptide R3P121],1 nM,,,R3 Selectivity [1]: 50
